Reference: the supplement of paper PMC7125110
± gives the standard error. For some of these results: Fewer inactive variants are shown than the library holds.

B1: glmS ribozyme (parent)
chain: AUAAAAGCGCCAGAACUACAGAAAUGUAGUUGACGAGGAGGAGGUUUAUCGAAUUUUCGGCGGAUGCCUCCAAA

Legend:
Conditions in all cases: with glucosamine-6-phosphate
[1] = variants of: B1; assay: kcat; higher = faster cleavage; RNA array
Outline: (§1)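 Using a hybridised Cy3 probe at 37 °C, barcoded ribozyme variants transcribed in situ by E. coli RNA polymerase on sequenced MiSeq chips were monitored across tiles imaged over ~14 h. The flow contained glucosamine-6-phosphate from 40 μM to 10 mM in HEPES/KCl/Mg(OAc)2 buffer. Signals were normalised to baseline and to non-cleaving reference variants before per-tile medians were fit to one- or two-exponential decays to yield kobs. Weighted Michaelis–Menten fits across concentrations gave kcat and KM.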

[2] = variants of: B1; assay: self-cleavage kobs at 2500 uM GlcN6P; higher = faster cleavage; RNA array
Outline: as §1

[3] = variants of: B1; assay: self-cleavage kobs at 10000 uM GlcN6P; higher = faster cleavage; RNA array
Outline: as §1

[4] = variants of: B1; assay: self-cleavage kobs at 640 uM GlcN6P; higher = faster cleavage; RNA array
Outline: as §1

[5] = variants of: B1; assay: KM; higher = weaker cofactor use; RNA array
Outline: as §1

[6] = variants of: B1; assay: self-cleavage kobs at 40 uM GlcN6P; higher = faster cleavage; RNA array
Outline: as §1

[7] = variants of: B1; assay: self-cleavage kobs at 160 uM GlcN6P; higher = faster cleavage; RNA array
Outline: as §1

Variant: AUAAAAGCGCCAGAACUACAGAAAUGUAGUUGACGAGGAGGAGGUUUAUCGAAGUUUUGGCGGAUGUCUCCAAA [U54G C58U C67U]
- kcat [1]: 4.43e-05 ± 9.6e-06 s⁻¹
- self-cleavage kobs at 2500 uM GlcN6P [2]: 5.48e-05 ± 1.7e-05 s⁻¹
- self-cleavage kobs at 10000 uM GlcN6P [3]: 3.78e-05 ± 1.2e-05 s⁻¹

Variant: AUAAAAGCGCCAGAACUACAGAAAUGUAGUUCACGAAGAGGAGGUUUAUCGAAUAUUCGGCGGAUGAAUCCAAA [G32C G37A U55A C67A C68A]
- kcat [1]: 4.68e-05 ± 2.3e-05 s⁻¹
- self-cleavage kobs at 640 uM GlcN6P [4]: 7.47e-05 ± 3.5e-05 s⁻¹

Variant: AUAAAAGCGCCAGAACUACAGAAAUGUAGGUGACGAGGAGGAGGUUUAUCGAAUUUUCGGCGGAUGUCUCCAAA [U30G C67U]
- kcat [1]: 0.00191 ± 0.00047 s⁻¹
- KM [5]: 924 ± 380 µM
- self-cleavage kobs at 40 uM GlcN6P [6]: 9.9e-05 ± 2.5e-05 s⁻¹
- self-cleavage kobs at 160 uM GlcN6P [7]: 0.000289 ± 5.9e-05 s⁻¹
- self-cleavage kobs at 640 uM GlcN6P [4]: 0.000697 ± 0.00011 s⁻¹
- self-cleavage kobs at 2500 uM GlcN6P [2]: 0.00139 ± 0.00022 s⁻¹
- self-cleavage kobs at 10000 uM GlcN6P [3]: 0.00378 ± 0.0013 s⁻¹

Variant: AUAAAAGCGCCAGAACUACAGAAAUGUAGUUGACGAGGAGGAGGUUUAGCGAAUUUUCGGCGGAUGCCCCCAAA [U49G U69C]
- kcat [1]: 0.000152 ± 6.9e-06 s⁻¹
- KM [5]: 466 ± 86 µM
- self-cleavage kobs at 640 uM GlcN6P [4]: 8.8e-05 ± 2.4e-05 s⁻¹
- self-cleavage kobs at 2500 uM GlcN6P [2]: 0.000131 ± 2.7e-05 s⁻¹
- self-cleavage kobs at 10000 uM GlcN6P [3]: 0.00014 ± 3.8e-05 s⁻¹

Variant: AUAAAAGCGCCAGAACUACAGAAAUGUAGUUGACGAGUAGGAGGUUUAUCGAAUUUUCGGCGGAUGUCUCCAAA [G38U C67U]
- kcat [1]: < 1e-05 s⁻¹

Variant: AUAAAAGCGCCAGAACUACAGAAAUGUAGUUGACGAGUAGGAGGUUUAUCGAAUUUUCGGCGGAUGACUCCAAA [G38U C67A]
- kcat [1]: 1.4e-05 ± 1.8e-06 s⁻¹

Variant: AUAAAAGCGCCAGAAAUACAGAAAUGUAGUUGACGAAGAGGAGGUUUAUCGAAUUUUCGGCGGAUGCCUCCAAA [C16A G37A]
- kcat [1]: 7.68e-05 ± 2.6e-06 s⁻¹
- KM [5]: 999 ± 160 µM
- self-cleavage kobs at 2500 uM GlcN6P [2]: 5.79e-05 ± 1.2e-05 s⁻¹
- self-cleavage kobs at 10000 uM GlcN6P [3]: 6.89e-05 ± 9.4e-06 s⁻¹

Variant: AUAAAAGCGCCAGAACUACAGAAAUGUAGUUAACGAGGAGGAGGUUUAUCGAAUUUUCGGCGGAUGCUUCCAAA [G32A C68U]
- kcat [1]: 0.0003 ± 1.7e-05 s⁻¹
- KM [5]: 2170 ± 300 µM
- self-cleavage kobs at 640 uM GlcN6P [4]: 7.37e-05 ± 1.1e-05 s⁻¹
- self-cleavage kobs at 2500 uM GlcN6P [2]: 0.000149 ± 1.9e-05 s⁻¹
- self-cleavage kobs at 10000 uM GlcN6P [3]: 0.000251 ± 2e-05 s⁻¹

Variant: AUAAAAGCGCCAGAACUACAGAAAUGUAGUUGACGAGGAGGAGGUUCAUCGAAUUUUCGGCGGAUGCAUCCAAA [U47C C68A]
- kcat [1]: 3.98e-05 ± 6.2e-06 s⁻¹
- self-cleavage kobs at 2500 uM GlcN6P [2]: 4.92e-05 ± 1.8e-05 s⁻¹
- self-cleavage kobs at 10000 uM GlcN6P [3]: 3.44e-05 ± 1.2e-05 s⁻¹

Variant: AUAAAAACGCCAGAACUACAGAAAUGUAGUUGACGAGGAGGAGGUUUAUCGAAUUUUCGGCUGAUGCCUCCAAA [G7A G62U]
- kcat [1]: < 1e-05 s⁻¹
- self-cleavage kobs at 40 uM GlcN6P [6]: < 1e-05 s⁻¹
- self-cleavage kobs at 640 uM GlcN6P [4]: < 1e-05 s⁻¹
- self-cleavage kobs at 10000 uM GlcN6P [3]: < 1e-05 s⁻¹

Variant: AUAAAAGCGCCAGAACUACAGAAAUGUAGUUGACGAGGAGGGGGUUUAUCGAAUUAUCGGCGGAUGCCUCCAAA [A42G U56A]
- kcat [1]: 0.0334 ± 0.011 s⁻¹
- KM [5]: 4460 ± 1800 µM
- self-cleavage kobs at 40 uM GlcN6P [6]: 0.000401 ± 8.1e-05 s⁻¹
- self-cleavage kobs at 160 uM GlcN6P [7]: 0.000893 ± 0.00024 s⁻¹
- self-cleavage kobs at 640 uM GlcN6P [4]: 0.00451 ± 0.001 s⁻¹
- self-cleavage kobs at 2500 uM GlcN6P [2]: 0.0106 ± 0.0033 s⁻¹
- self-cleavage kobs at 10000 uM GlcN6P [3]: 0.024 ± 0.0052 s⁻¹

Variant: AUAAAAGCGCCAGAACUACAGAAAUGUAGUUGACGAGGAGGAGGUUUAUCGAGUUUUCGGCGGAUCCCUCCAAA [A53G G66C]
- kcat [1]: 0.000985 ± 5.6e-05 s⁻¹
- KM [5]: 1230 ± 190 µM
- self-cleavage kobs at 160 uM GlcN6P [7]: 0.000121 ± 5e-05 s⁻¹
- self-cleavage kobs at 2500 uM GlcN6P [2]: 0.000619 ± 0.00014 s⁻¹
- self-cleavage kobs at 10000 uM GlcN6P [3]: 0.000909 ± 0.00017 s⁻¹

Variant: AUAAAAGCACCAGAACUACAGAAAUGUAGUUGACGAGGAGGAGGUUUAACGGAUUUUCGGCGGAUGCCUCCAAA [G9A U49A A52G]
- kcat [1]: < 1e-05 s⁻¹

Variant: AUAAAAGCGCCAGAACUACAGAAAUGUAGUUGACGAGGAGGAGGUUUAUGGAAUUUUCGGCGGAUGCCCCCAAA [C50G U69C]
- kcat [1]: 0.000107 ± 2.1e-05 s⁻¹
- self-cleavage kobs at 40 uM GlcN6P [6]: 0.000118 ± 3.6e-05 s⁻¹
- self-cleavage kobs at 160 uM GlcN6P [7]: 9.81e-05 ± 2.6e-05 s⁻¹
- self-cleavage kobs at 640 uM GlcN6P [4]: 9.95e-05 ± 1.7e-05 s⁻¹
- self-cleavage kobs at 2500 uM GlcN6P [2]: 0.000193 ± 3.4e-05 s⁻¹
- self-cleavage kobs at 10000 uM GlcN6P [3]: 9.16e-05 ± 1.9e-05 s⁻¹

Variant: AUAAAAGCGCUUGAACUACAGAAAUGUAGUUAACGAGGAGGAGGUUUAUCGAAUUUUCGGCGGAUGCCUCCAAA [C11U A12U G32A]
- kcat [1]: 0.000169 ± 4.7e-05 s⁻¹
- self-cleavage kobs at 2500 uM GlcN6P [2]: 0.000124 ± 3.5e-05 s⁻¹
- self-cleavage kobs at 10000 uM GlcN6P [3]: 0.00013 ± 2.5e-05 s⁻¹

Variant: AUAAAAGCGCCAGAACUACAGAAAUGUAGUUGACGAGGAGGAGGUUCAUCGAAUUUUGAGUGGAUGCCUCAAAA [U47C C58G G59A C61U C71A]
- kcat [1]: 1.36e-05 ± 3.4e-06 s⁻¹

Variant: AUAAAAGCGCCAGAACUACAGAAAUGUAGUUGACGAGGAGGAGGUUUAUCGAAUCUUCGGCGGAUGUCUCCAAA [U55C C67U]
- kcat [1]: 0.000234 ± 1.4e-05 s⁻¹
- KM [5]: 499 ± 120 µM
- self-cleavage kobs at 640 uM GlcN6P [4]: 0.000134 ± 2.5e-05 s⁻¹
- self-cleavage kobs at 2500 uM GlcN6P [2]: 0.000173 ± 4.2e-05 s⁻¹
- self-cleavage kobs at 10000 uM GlcN6P [3]: 0.000231 ± 3e-05 s⁻¹

Variant: AUAAAAGCGCCAGAACUACAGAAAUGUAGUUGACGAGGAGGUGGUUUAUCGAAGUUUCGGCGGAUGCCUCCAAA [A42U U54G]
- kcat [1]: 0.000246 ± 1e-05 s⁻¹
- KM [5]: 736 ± 110 µM
- self-cleavage kobs at 640 uM GlcN6P [4]: 0.000117 ± 2e-05 s⁻¹
- self-cleavage kobs at 2500 uM GlcN6P [2]: 0.000201 ± 3.1e-05 s⁻¹
- self-cleavage kobs at 10000 uM GlcN6P [3]: 0.000226 ± 2.1e-05 s⁻¹

Variant: AUAAAAGCGCAAGAAGUACAGAAAUGUAGUUGACGAGGAGGAGGUUUAUCGAAUUUUCGGCGGAUGCCUCCAAA [C11A C16G]
- kcat [1]: 0.000161 ± 3.7e-05 s⁻¹
- self-cleavage kobs at 10000 uM GlcN6P [3]: 5.99e-05 ± 1.1e-05 s⁻¹

Variant: AUAAAAGCGCCAGGACUACAGAAAUGUAGUGGACGAGGAGGAGGUUUAUCGAAUUUUCGGCGGAUGCCUCCAAA [A14G U31G]
- kcat [1]: 0.00752 ± 0.0003 s⁻¹
- KM [5]: 2120 ± 140 µM
- self-cleavage kobs at 160 uM GlcN6P [7]: 0.000539 ± 9.8e-05 s⁻¹
- self-cleavage kobs at 640 uM GlcN6P [4]: 0.00175 ± 0.00031 s⁻¹
- self-cleavage kobs at 2500 uM GlcN6P [2]: 0.0039 ± 0.00067 s⁻¹
- self-cleavage kobs at 10000 uM GlcN6P [3]: 0.00635 ± 0.00094 s⁻¹
